From the DeepSol protein solubility set

Test: soluble on expression in E. coli; label from the status in PepcDB or PDB records

Soluble on expression in E. coli, not soluble:
MGSDKIHHHHHHMHIPPFDNQNQAIVGEGDAHVPLTYFNIVKLKEGEAYDYRLKGYETCIVPATGTVDVEVGGEVFADIGNRCVDVWDGDPEGVYVPTNVGAHITARTDAEIFVAGAQFTETLTPFAVRAGELDLVQYGSDETKTHRKIKHILGAGHHDRVGRLLVSELFTVGAGGWSGFPSHKHDTDRLPDETRHDECYNFRFKPDYGSGLQMLQREDNEPGDAYHIMNGSTVLIDKGYHPCCALPGYEMYYFTILGGLSQRSLKQYFQPTHSEQLHTIPGIMDMVAKFK
MGSDKIHHHHHHMHLPNSQIYKNFGESMNPFDIMKASQIACCLEVSSFKPGNVHRNRDYRDIKYHHFINAGIAFGNVVYEAAQKDRDVGLYIKKAVIESKKWSPTNANLGIIMLHIPIAMAAGKLENFDENKLKENLKKIAENTTVEDALNVYDAINIAMAYVNKPKKGPDVTSEDAKKELIEKGLTLLDVYKISAEWDNISKEWVDNFKISFEGYNLLKKYYDELNNINLAVTKTFLNLLAKYPDTLIARKRGFETALKVSKMAEDVLNNFKEEKVKEFDKYLSKEGNKLNPGTTADLIASSLMIFILDRIDKRETILW
MGSDKIHHHHHHMHQPSDFQVFRTLDRTSNARLLRSSTLSDGLALAHWYRDEAEILGYSDPGHHTLSLYLQGGWQTFRRDRPGLYGGPDRFCVMPAEHHSDWAVTRGLGFMHLYISPERLAGAAVRTLDCEPRSLQLEERTYIQDEPLAALCRTLERQDWNEPGEHLLCTSLAHQAVDHLLLTGCGRRTDVRWQGGLAAHVRRRLADYIESHLEQPLELGSLAELAALSEYHFARMFRVSFGLPPHRYVLERRLARARDLLAYSAQPLQEVSLACGFASPSHFNRRFREAHGATPGQYRAALKAS
MGSDKIHHHHHHMHSLTPEYLAALCFDGTQVATLRTLGEYQGKQQLYAAQSPEALKGLRQIAVVESTESSNRLEGVVVAPSRLKSLVIRNATPKSRSEQEIAGYRDALALIHESAAHMPFSEGVVLQLHTLLYRYMPQAGGRWKATNNDIIERHPDGTSRLRFQPVASHLTPMAMADLTGRYATALDQHLADPLVLVPLAMLDLLCIHPFPDGNGRMSRLLTLLLLYHFDYAVGRYISLERIFEETKESYYETLEASSQGWYQGQHDVKPWLDYFWGALLRAYREFEERVGTIERGRGSKGDRVRAEVLGRSLPFSISEIEEACPGVSRDMVRLVLRAMKSEGLIESTGKGRGAKWIKQG
MGSDKIHHHHHHMHTEVQEYGLSLRWVRFIFAAKEILINMVYKVFLSLCIGLALSASAALHAQKAVSGHAPIQVETPARSSGQKHVLQLVTPKLETVRIGIIGLGMRGPGAVERFSKIPGTQIVALCDVLPERVKKTQEILVKAGLPEAAAYSGSEDAWKKLCEREDIDLVYIVTDWKTHAEMGVYAMEHGKHAAIEVPAAMTLEEIWKLIDTSERTRKHCIQLENCVYDFFELTTLNMAHQGVFGEILHAEGAYIHNLEDFWPYYWNNWRLDYNRKHRGDVYATHGMGPACQLLDIHRGDRMKTIVAMDTKAVNGPAYIKNKTGEVVADFQNGDQTTSLIRTEKGKTLLIQHNVMTPRPYSRKYQAVGTDGFADKYPLEMYCLRPAQVDSDIAPDHEKLNAHGPVSEEVKKALMEKYKHPIHRELEETAKKVGGHGGMDYIMDYRLIYCLRNGLPLDMDVYDLAEWCCLAELSRISIENGSAPVAIPDFTRGNWDKVKGYRHAMAE
MGSDKIHHHHHHMIEQIGSVEEADAGKVLESLVLSFSPSLLPLRQRWRNNGLSADFLGDYVTTFFPGAGDDTTTADRQKHAKAAVSYIANELLENAMKYSAAESTRPITITLSLEAERITFIETNPVSRARAATFHSYATELIASDPMEMYLRILEEERSDDDGSGLGLITMINDYNASLSWRFEDPGEDTVMVSTIVQIPV
MGSDKIHHHHHHMIHIKRAPDTETAYLVMKEGFSDYMIPLGLSPEVFQERILERDGNQLEHSFIAYHGERPVAIWLNGLKTIKKKTVMRCGGLAVDPQYRRLGIAKALYDAQLSYAKSLNVDCLMLEVIQGNEPAITLYKSFGYQTVSELGYFHKEESGQVEPLVEIDQVAFERRYIQQDEYIWQQDPGVMKLAKARYYELDGAFIAAVNESIFAILTDEEEVARVATEATRRLAGELYHLQSTNQQVWEELLKAGWQQRDLKQFIMQKPISV
MGSDKIHHHHHHMIIAVSGKGGVGKTAFTTLLIKALSKKTNSILVVDADPDSNLPETLGVEVEKTVGDIREELKKLVERDEIPAGMTKLDYLRSKIFEILVETKYYDLLVMGRPEGSGCYCSVNNWLRQIIDNLAKDYEFVVIDTEAGLEHLSRRTTQNVDVMIVITDASKRGLGTAKRIKKLANELEVKFKDIYVVANKVKPEYEELIDNYAKELGLNLIGKLPYNKEIAEYDLKGIPLWNLPENNEVYKKVEEIAEKIINKKF
MGSDKIHHHHHHMIIDAHTHVWPEKIAAKALAGRVPGMEAKFDGTVAGLKRSMDAAGIDHCVAFGIADHARHVERANEFISSQRSDWLTPFGTIHLDLSVEENMEILQRHGIKGVKLHPLFQRFRLDDRRLWALFDAFGSDIAVITHVGFGGQGSANENSTPQMIVDIARNFPKLRFMACHFGGFRRLDEAEKYVVGLPIVLETSWPPGLAEIPTERLRAIVHRHGPDRIIFGSDWPMVDPADEIEAIRRLELHPDDEAAILGGNLARILGMES
MGSDKIHHHHHHMIKLIVSDIDGTLVDSQGQLLPATITGVQAAVARGAQMVLASARSPKGMFGIAQQLGINSTMIAYNGALTATTDVNDRLTVFEEQAVDPKLAQAVQTVVAHDWPAASISIYSNNNWLVATNGPWEQQEATGIGYAPHVTDLGTWLQRMPTPVHKMMIMADPDIIQAIEQRLSRNEFSGLAVYRSKETYLEIVAAGVTKAAALMKLLQDDQVTPAETLAFGDNFNDVAMLQTAGIGVAMANAPQPVKEAANIVTTDNNHNGIQLTLAQYFADVTR
MGSDKIHHHHHHMIKLKKVLVLGGTRFFGKHLVEALLQDGHDVTIATRGITEDSFGSRVKRLIVDREDEKQLAERLADKSYDIVYDNLCYSSNAAKIICEVLRGKTTKYVMTSSMAVYEPALSLSEEDFDPYEYAIAYGDRNDFNYGEGKRLAEAVVFQQATFPVVAVRFPVVIGENDYTKRLQFYVEHIVREEPVAVNHLDGKLSFIHEEEAGEFLAWCGMKDIEGPINACSNGVVSTREIIHFIEENTGIKSLIQEVGDHVAPYNEVTNCTLHNGKANELGFPFRGLKIEIEKVLCYYIHAMK
MGSDKIHHHHHHMILDVDYVISAANITMQFGAKPLFENISVKFGNGNRYGLIGANGCGKSTFMRILSGEQEPSAGNVSLEPNIRIGKLRQDQFAYEDYSVVDAVIMGHEELWAVKEERDRIYSSGEMSEEDGMRVADLETEFAEMDGYTAESRAGELLLGLGIPVEQHFGLMSALAPGVKIRVLLAQVLFSEPDIMLLDEPTNNLDINTIRWLEGVLAEKQSTMIIISHDRHFLNTVCTHMADIDYGELRVYPGNYDEYMFAATQAREQLMSDNAKKKEKIAELQSFVSRFSANASKAKQATSRQKQMEKIQLDEVKASSRVNPYIRFTQEKKLYRLALETENVRKSFEDEAVLKGLSTSIEVGEKVAIIGANGIGKTTLLKCLMGEYTPDSGSIKWSENAAIGYYAQDHAHWFKQDMTVYEWMYQWKKPGDDEQAIRGVLGRMLFSSDDIQKPVSILSGGEKGRMIFGKLILQRPNILVMDEPTNHLDMESIESLNLALEQFEGTLLFVSHDREFVSTLATRIIEITDKGLRDFAGSYDEYLAQLAAA
MGSDKIHHHHHHMINFSQIQVFITIVESGGFIAAGEKMHRSQPAITNAIKKLESSLGFELFDRKVYRPQLTAKGKAFYQKAREVVAQFMQLENSAETLRSGVETQFSIDLDIALPLPGYAPLIQSFIRQYPETCFSLSNNTFVRCLERLERRECHLCIAASHIRSPQIEYLRMPSIRMIPVASRDYYDQHKERINNPKLGIYCMQIMIAGTQQELYQLKIEPLSHSMPKWLVGDMYIRKQLILSGMGIGRLPDHLVEKELAEGSLVQLNTRDYVAVTMDIYAMRLNNQEHGMVSNYAWQSLKSYAEDTVSPDLK
